This note sets out measurements from publication PMC8514162.

What all share (test): native MS
Test [1] has as its target haptoglobin Hp 1-1, tetramer H-L-L-H (human) (UniProt P00738).
Test [2] concerns the target haptoglobin Hp 2-1 isoform HL(L*H)LH (human) (UniProt P00738).
Test [3] has as its target haptoglobin Hp 1-1, tetramer H-L-L-H (human) (UniProt P00738). This is another data set of the same source.
Test [4] has as its target haptoglobin Hp 2-1 isoform HL(L*H)2LH (human) (UniProt P00738).
Test [5] has as its target haptoglobin Hp 2-1 isoform HL(L*H)LH (human) (UniProt P00738). The source holds these as a separate data set.

Like-named read-outs stand apart in the source and are kept apart here.

For “semi-hemoglobin dimer α*β* of hemoglobin (Hb) (from UniProt P69905 1-142; P68871 1-147) (complex)”, the stoichiometry N (α*β* dimers per HLLH) in test [1] worked out at 2. In test [2], this substance showed a stoichiometry N (semi-Hb dimers per HL(L*H)LH) of 3. In test [3], this substance gave a stoichiometry N (Hb dimers per Hp molecule) of 2, a stoichiometry N (semi-Hb dimers per HLLH) of 2 and a stoichiometry N (α*β* dimers per HLLH) of 2. Moreover, the stoichiometry N (dimeric Hb subunits per HL(L*H)2LH) in test [4] was determined as 4. In test [5], the stoichiometry N (semi-Hb dimers per HL(L*H)LH) was 3.
